Measured values from patent publication US20210260173A1.

Biological target: IgG-type of BCR (membrane-bound IgG) on Nu-DUL-1 cells
Test: cell-based or functional assay

With “Immunoglobulin G-degrading enzyme of S. pyogenes (IdeS)” the loss of anti-Fab signal on Nu-DUL-1 cells (flow cytometry) after IdeS treatment was greater than 4 µg/mL and the membrane bound IgG on Nu-DUL-1 cells one hour after IdeS treatment and wash (flow cytometry, anti-Fab) was greater than 4 µg/mL.
